Reference: article doi:10.1101/2021.04.01.437949 (bioRxiv, 2021)

B3: recombinant Kap120-6xHis (natural protein, S. cerevisiae, UniProt Q02932 1-1032, looked up)
chain: MASSLNELNLVQVLEQASNPQHIRSDVQKLAEQQLRQWETQAGFHYLLQSIYLNLSNSLQIRWLAVIQFKNGVDKYWRSTRINAIPKDEKASIRGRLFEMIDEQNNQLCIQNAQASARIARLDFPVEWPTLFEDLENLLNDEIIRKDSVKIYNILMHINQIVKVLGTARIGRCRPAMQSKVPLILPLIVRIYLQSFEEWTTSSNLNYEDLSSLQVSYLALKVLRRIICEGYDRPQTDQSVCDFIKLSVSHFEMLISNHENFKKFDIYEKFIKCLGKLYFNLVTGSPANFILLPCSTQILITYTRLIFDKAPKVYRENSDVTGDFWEQTAIRGLLILKRVINFIHKKGAITLKARSDKLTIDASINKINTEFLNENLITRLVDTLMEWYLRLRPTELENWFMDPEEWINEQMATSYEYQIRPCAENVFQDLMNTFSELLVPYLLKKIENDASKLSNSLDDFLRKDAIYASFQLSASAVSEMVDFDRLLIQVFLPEATNTNISGDELRIIRRRVALIINEWSTVKCSEESKSLCYKLFTNFLTDEDDKVVLLTTVQTVRTMVDDWNFNKDTFQPFLTENVHLLLRKILPSVSLTETRLYVLNTLSDIIIQTKPLISRDLLVEILQIIPNLWEIATNNASEAILANALLRLLRNLVSSLGSQSHLTWDIAIPVVALACDPSSMQYQLLSEDGYELWGMLLQNFSSHDQEFDDKFVELVPFLKYGIETHTEILPTLLEIIKSYALILNPVDFFSNNTFQDIFKQMSKYLLKLREDSFQLVLEIWEILILSNESDYENLLLQKFYETGVLSALFDAIFLEEAPSSYLCSQIIQIIARISYVNPDALMTFLATYHDNLPTSNENARMPESIRKIVSKDQTYDSVVNKLLTGWIVCFRDIFDPKFKKVHILGISSLLRTGLVPILTEFSSIASLWIEMLEEINETNRGDCEKYHLNDIVTEQSIAFHPLTAEQLRYHQLCKNNDPVHNISLKDFISQSMEYLESHLGVERYQEFLKTINPSLLENLQMFLSIQPQEARP

Tests used:
recombinant Kap120-6xHis = target: B3; assay: pull-down
TAP-tagged Kap120 = target: T1, TAP-tagged Kap120 (S. cerevisiae, UniProt Q02932 1-1032); assay: co-IP
T1 sequence (looked up): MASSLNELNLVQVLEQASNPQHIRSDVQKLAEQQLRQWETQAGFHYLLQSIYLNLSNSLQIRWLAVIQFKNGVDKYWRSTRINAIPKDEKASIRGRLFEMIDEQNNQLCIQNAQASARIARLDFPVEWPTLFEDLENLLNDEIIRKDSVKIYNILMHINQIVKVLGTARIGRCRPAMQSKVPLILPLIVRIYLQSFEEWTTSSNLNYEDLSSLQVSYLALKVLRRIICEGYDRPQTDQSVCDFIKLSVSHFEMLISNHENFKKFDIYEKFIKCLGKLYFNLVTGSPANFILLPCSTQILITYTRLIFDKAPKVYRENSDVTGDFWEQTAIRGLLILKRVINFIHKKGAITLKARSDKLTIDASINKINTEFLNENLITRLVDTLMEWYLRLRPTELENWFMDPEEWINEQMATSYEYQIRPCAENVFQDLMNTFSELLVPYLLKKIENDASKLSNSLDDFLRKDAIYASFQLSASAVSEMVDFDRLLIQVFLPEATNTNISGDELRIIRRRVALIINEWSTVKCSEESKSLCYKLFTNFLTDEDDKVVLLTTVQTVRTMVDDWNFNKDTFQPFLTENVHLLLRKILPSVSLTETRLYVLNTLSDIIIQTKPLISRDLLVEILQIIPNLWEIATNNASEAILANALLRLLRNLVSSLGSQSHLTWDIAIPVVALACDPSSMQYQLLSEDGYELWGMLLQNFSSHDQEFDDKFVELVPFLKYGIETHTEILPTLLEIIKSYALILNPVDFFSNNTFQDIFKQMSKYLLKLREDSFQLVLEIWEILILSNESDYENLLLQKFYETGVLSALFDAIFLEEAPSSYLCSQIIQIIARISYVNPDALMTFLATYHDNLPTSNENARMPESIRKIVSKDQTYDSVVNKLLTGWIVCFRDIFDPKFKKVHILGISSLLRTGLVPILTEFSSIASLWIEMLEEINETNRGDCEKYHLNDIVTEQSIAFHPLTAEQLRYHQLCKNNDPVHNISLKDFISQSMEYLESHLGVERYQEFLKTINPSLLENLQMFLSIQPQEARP

[1] = target: FLAG-tagged Xrn1 (wild type) (S. cerevisiae, UniProt P22147 1-1528); assay: pull-down
FLAG-tagged Xrn1 (wild type), sequence (P22147 whole entry): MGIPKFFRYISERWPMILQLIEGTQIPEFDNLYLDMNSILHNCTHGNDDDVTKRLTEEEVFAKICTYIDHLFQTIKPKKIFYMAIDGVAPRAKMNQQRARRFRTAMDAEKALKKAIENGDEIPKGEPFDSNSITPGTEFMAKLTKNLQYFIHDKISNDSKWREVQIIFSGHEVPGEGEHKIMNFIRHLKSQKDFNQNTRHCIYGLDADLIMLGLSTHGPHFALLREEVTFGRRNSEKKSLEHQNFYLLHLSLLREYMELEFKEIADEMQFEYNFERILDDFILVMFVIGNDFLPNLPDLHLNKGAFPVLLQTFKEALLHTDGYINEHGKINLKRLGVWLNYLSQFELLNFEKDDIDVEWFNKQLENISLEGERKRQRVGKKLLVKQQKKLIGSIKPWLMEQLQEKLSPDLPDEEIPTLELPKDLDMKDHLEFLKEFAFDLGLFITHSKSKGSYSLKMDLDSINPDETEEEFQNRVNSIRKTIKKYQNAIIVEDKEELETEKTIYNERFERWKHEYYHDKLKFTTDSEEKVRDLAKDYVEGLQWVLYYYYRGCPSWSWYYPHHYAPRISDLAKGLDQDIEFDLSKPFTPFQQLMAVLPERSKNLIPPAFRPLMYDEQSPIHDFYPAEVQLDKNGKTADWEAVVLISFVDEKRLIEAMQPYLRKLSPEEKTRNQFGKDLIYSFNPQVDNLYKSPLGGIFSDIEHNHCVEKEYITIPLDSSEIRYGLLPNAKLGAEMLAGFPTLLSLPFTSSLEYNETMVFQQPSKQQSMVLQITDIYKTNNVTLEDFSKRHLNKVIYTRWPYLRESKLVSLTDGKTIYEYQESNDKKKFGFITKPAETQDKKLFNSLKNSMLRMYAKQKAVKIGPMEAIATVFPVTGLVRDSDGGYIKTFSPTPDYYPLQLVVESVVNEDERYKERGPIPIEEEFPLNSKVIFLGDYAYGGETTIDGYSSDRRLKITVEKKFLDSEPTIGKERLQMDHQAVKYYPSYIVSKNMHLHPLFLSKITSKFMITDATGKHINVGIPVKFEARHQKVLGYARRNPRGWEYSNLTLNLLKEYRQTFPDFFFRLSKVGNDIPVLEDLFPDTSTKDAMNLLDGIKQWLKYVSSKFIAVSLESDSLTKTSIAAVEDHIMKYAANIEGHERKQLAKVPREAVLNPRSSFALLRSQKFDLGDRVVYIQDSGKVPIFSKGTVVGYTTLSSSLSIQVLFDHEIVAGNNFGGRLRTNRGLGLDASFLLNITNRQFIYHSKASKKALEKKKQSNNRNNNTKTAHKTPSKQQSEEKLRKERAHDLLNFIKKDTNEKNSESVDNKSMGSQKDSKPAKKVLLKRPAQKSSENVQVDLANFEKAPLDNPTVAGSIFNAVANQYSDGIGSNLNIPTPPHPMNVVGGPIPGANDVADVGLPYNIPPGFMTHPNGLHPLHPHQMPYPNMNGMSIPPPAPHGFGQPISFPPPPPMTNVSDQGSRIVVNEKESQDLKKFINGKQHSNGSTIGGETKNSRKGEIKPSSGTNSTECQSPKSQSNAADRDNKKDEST

Molecule: FLAG-tagged Xrn1^ΔNLS1/2 (from UniProt P22147 1-1528) (enzyme)
- fold weaker than Xrn1^WT-Kap120 (recombinant Kap120-6xHis): 4.5 fold

B1: Dhh1 (natural protein, S. cerevisiae (endogenous in yeast), UniProt P39517 1-506, looked up)
chain: MGSINNNFNTNNNSNTDLDRDWKTALNIPKKDTRPQTDDVLNTKGNTFEDFYLKRELLMGIFEAGFEKPSPIQEEAIPVAITGRDILARAKNGTGKTAAFVIPTLEKVKPKLNKIQALIMVPTRELALQTSQVVRTLGKHCGISCMVTTGGTNLRDDILRLNETVHILVGTPGRVLDLASRKVADLSDCSLFIMDEADKMLSRDFKTIIEQILSFLPPTHQSLLFSATFPLTVKEFMVKHLHKPYEINLMEELTLKGITQYYAFVEERQKLHCLNTLFSKLQINQAIIFCNSTNRVELLAKKITDLGYSCYYSHARMKQQERNKVFHEFRQGKVRTLVCSDLLTRGIDIQAVNVVINFDFPKTAETYLHRIGRSGRFGHLGLAINLINWNDRFNLYKIEQELGTEIAAIPATIDKSLYVAENDETVPVPFPIEQQSYHQQAIPQQQLPSQQQFAIPPQQHHPQFMVPPSHQQQQAYPPPQMPSQQGYPPQQEHFMAMPPGQSQPQY
- fold reduction of the co-IP in Xrn1^ΔNLS1/2 cells against WT cells (TAP-tagged Kap120): ~5 fold

B2: Pat1 (natural protein, S. cerevisiae (endogenous in yeast), UniProt P25644 1-796, looked up)
chain: MSFFGLENSGNARDGPLDFEESYKGYGEHELEENDYLNDETFGDNVQVGTDFDFGNPHSSGSSGNAIGGNGVGATARSYVAATAEGISGPRTDGTAAAGPLDLKPMESLWSTAPPPAMAPSPQSTMAPAPAPQQMAPLQPILSMQDLERQQRQMQQQFMNFHAMGHPQGLPQGPPQQQFPMQPASGQPGPSQFAPPPPPPGVNVNMNQMPMGPVQVPVQASPSPIGMSNTPSPGPVVGATKMPLQSGRRSKRDLSPEEQRRLQIRHAKVEKILKYSGLMTPRDKDFITRYQLSQIVTEDPYNEDFYFQVYKIIQRGGITSESNKGLIARAYLEHSGHRLGGRYKRTDIALQRMQSQVEKAVTVAKERPSKLKDQQAAAGNSSQDNKQANTVLGKISSTLNSKNPRRQLQIPRQQPSDPDALKDVTDSLTNVDLASSGSSSTGSSAAAVASKQRRRSSYAFNNGNGATNLNKSGGKKFILELIETVYEEILDLEANLRNGQQTDSTAMWEALHIDDSSYDVNPFISMLSFDKGIKIMPRIFNFLDKQQKLKILQKIFNELSHLQIIILSSYKTTPKPTLTQLKKVDLFQMIILKIIVSFLSNNSNFIEIMGLLLQLIRNNNVSFLTTSKIGLNLITILISRAALIKQDSSRSNILSSPEISTWNEIYDKLFTSLESKIQLIFPPREYNDHIMRLQNDKFMDEAYIWQFLASLALSGKLNHQRIIIDEVRDEIFATINEAETLQKKEKELSVLPQRSQELDTELKSIIYNKEKLYQDLNLFLNVMGLVYRDGEISELK
- fold reduction of the co-IP in Xrn1^ΔNLS1/2 cells against WT cells (TAP-tagged Kap120): ~5 fold

Molecule: B3
- binding result [1]: binds

B4: Tail-GFP (Xrn1 Tail, amino acids 351-521, fused to GFP) (domain or fragment, S. cerevisiae, UniProt P22147 351-521, looked up)
chain: EKDDIDVEWFNKQLENISLEGERKRQRVGKKLLVKQQKKLIGSIKPWLMEQLQEKLSPDLPDEEIPTLELPKDLDMKDHLEFLKEFAFDLGLFITHSKSKGSYSLKMDLDSINPDETEEEFQNRVNSIRKTIKKYQNAIIVEDKEELETEKTIYNERFERWKHEYYHDKLK
- binding result (recombinant Kap120-6xHis): binds
